Test results taken from patent publication US20180031579A1.

Target: Growth differentiation factor 11 (GDF11) (human) (UniProt O95390)
Assay: cell-based or functional assay

UniProt O95390, sequence (O95390 299-407 limits assumed): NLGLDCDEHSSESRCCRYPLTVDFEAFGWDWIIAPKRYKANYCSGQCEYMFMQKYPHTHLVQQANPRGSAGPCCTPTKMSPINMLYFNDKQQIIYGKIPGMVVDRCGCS

apoptosis in primary AML blasts, subjects 5 and 6: 50 % apoptosis
Substance: anti-human GDF11 antibody ab71347 (Abcam)
